{"source": "paper PMC5549993", "about": "“Bacterial effector NleL promotes enterohemorrhagic E. coli-induced attaching and effacing lesions by ubiquitylating and inactivating JNK” (PLoS Pathogens, 2017)", "binders": {"B1": {"name": "His6-tagged JNK1 purified from bacteria (enzyme, human, UniProt P45983-2 1-384, looked up)", "chain": "MSRSKRDNNFYSVEIGDSTFTVLKRYQNLKPIGSGAQGIVCAAYDAILERNVAIKKLSRPFQNQTHAKRAYRELVLMKCVNHKNIIGLLNVFTPQKSLEEFQDVYIVMELMDANLCQVIQMELDHERMSYLLYQMLCGIKHLHSAGIIHRDLKPSNIVVKSDCTLKILDFGLARTAGTSFMMTPYVVTRYYRAPEVILGMGYKENVDLWSVGCIMGEMVCHKILFPGRDYIDQWNKVIEQLGTPCPEFMKKLQPTVRTYVENRPKYAGYSFEKLFPDVLFPADSEHNKLKASQARDLLSKMLVIDASKRISVDEALQHPYINVWYDPSEAEAPPPKIPDKQLDEREHTIEEWKELIYKEVMDLEERTKNGVIRGQPSPLAQVQQ", "notes": "human JNK1α1 (MAPK8), in pET28a with 6x His tag; also called His-JNK1; source: E. coli BL21 (DE3), purified (Ni-NTA)"}}, "key": {"[1]": {"molecular_target": "T1, GST-tagged NleL C753A mutant (E. coli O157:H7 Sakai strain, UniProt A0A0H3JDV8 1-782, C753A)", "T1 construct": "also called GST-NleL-CA; NleL-CA", "T1 sequence": "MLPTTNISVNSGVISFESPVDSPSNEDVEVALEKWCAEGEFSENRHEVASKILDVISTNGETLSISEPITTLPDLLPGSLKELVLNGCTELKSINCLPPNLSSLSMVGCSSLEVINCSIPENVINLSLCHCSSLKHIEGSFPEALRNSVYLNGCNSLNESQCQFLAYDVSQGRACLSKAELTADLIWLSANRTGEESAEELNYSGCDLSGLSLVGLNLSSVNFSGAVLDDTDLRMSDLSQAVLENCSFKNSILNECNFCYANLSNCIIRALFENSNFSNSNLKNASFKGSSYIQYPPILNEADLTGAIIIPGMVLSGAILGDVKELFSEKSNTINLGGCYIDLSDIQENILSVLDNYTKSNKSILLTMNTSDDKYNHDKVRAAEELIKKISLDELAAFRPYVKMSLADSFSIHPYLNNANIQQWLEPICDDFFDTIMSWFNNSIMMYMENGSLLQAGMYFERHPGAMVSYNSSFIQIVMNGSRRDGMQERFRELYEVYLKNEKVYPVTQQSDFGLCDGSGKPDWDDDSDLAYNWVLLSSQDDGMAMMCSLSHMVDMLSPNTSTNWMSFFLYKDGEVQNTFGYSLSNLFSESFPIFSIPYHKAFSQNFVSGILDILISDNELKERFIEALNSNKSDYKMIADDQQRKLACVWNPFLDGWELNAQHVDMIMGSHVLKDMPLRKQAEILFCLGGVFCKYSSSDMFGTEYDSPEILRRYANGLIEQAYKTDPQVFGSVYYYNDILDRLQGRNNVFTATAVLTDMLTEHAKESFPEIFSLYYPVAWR", "assay": "pull-down", "settings": "both partners purified"}, "[2]": {"molecular_target": "T2, GST-tagged wild-type NleL (full length) (E. coli O157:H7 Sakai strain, UniProt A0A0H3JDV8 1-782)", "T2 construct": "also called GST-NleL; EspX7; source: E. coli BL21 (DE3), purified (Glutathione Sepharose)", "T2 sequence": "T1 sequence with A753C", "assay": "pull-down", "settings": "both partners purified"}}, "note": "Substitutions are numbered along the chain they refer to."}
{"binder": "B1", "values": [{"measurement": "binding result", "setting": "[1]", "value": "binds"}, {"measurement": "binding result", "setting": "[2]", "value": "binds"}]}
